The source of these data is article PMC12080921.

The target in one experiment is biotinylated bovine FI (bovine). Kind of experiment: BLI; Octet RED96; biotinylated bovine FI (150 nM) on streptavidin biosensors; PmSLP-1 as analyte at 0, 5, 16, 50, 160, 500, 1600 nM; 30 °C; PBS pH 7.4, 0.01% Tween 20; steady-state analysis, one-site model.
Conditions: not given
On the technique in general: BLI is a label-free optical method that tracks binding on a fibre tip over time.
For orientation: Kd means the concentration at which binding is half-saturated. In turn, PmSLP-1^15-318 (domain or fragment) came in with a Kd of 27 nM.

The target of a further experiment is biotinylated bovine FI. Kind of experiment: biolayer interferometry. To be noted: n = 3; parent: 27 ± 3 nM.
Take PmSLP-1^15-318 I133D: the Kd was determined as 43 nM.

For PmSLP-1^15-318 D121A, the Kd was 117 nM.

With PmSLP-1^15-318 D210A, the Kd was determined as 272 nM.

Take PmSLP-1^15-318 E132R: the dissociation constant (Kd) is 28 nM.

As to PmSLP-1^15-318 L127D, the Kd stood at 85 nM.

As for PmSLP-1^15-318 K236E, the Kd was determined as 32 nM.

Turning to PmSLP-1^15-318 D124R, the Kd turned out to be 53 nM.

For PmSLP-1^15-318 R167A, the Kd amounted to 107 nM.
